Experimental data published in article PMC9482650, “Quantitative fragmentomics allow affinity mapping of interactomes” (Nature Communications, 2022).

How the values were obtained:
Assay in all cases: holdup assay
Set-up in all cases: key: below the threshold = too weak to quantify, mostly under pKd 3.1 to 4
[1] = target: T1, GRIP1_2, Q9Y3R0
T1 sequence (Q9Y3R0 145-248, limits assumed, looked up): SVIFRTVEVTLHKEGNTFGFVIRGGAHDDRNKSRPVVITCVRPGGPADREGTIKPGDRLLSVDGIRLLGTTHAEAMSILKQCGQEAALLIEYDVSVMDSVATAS

[2] = target: PDLIM1, O00151
[3] = target: LNX1_2, Q8TBB1
[4] = target: HTRA1, Q92743
[5] = target: T2, MPP7, Q5T2T1
T2 sequence (Q5T2T1 134-230, limits assumed, looked up): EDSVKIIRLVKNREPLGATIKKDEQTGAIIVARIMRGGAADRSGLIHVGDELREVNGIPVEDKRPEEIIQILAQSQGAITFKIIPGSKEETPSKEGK

[6] = target: IL16_1, Q14005
[7] = target: T3, SNTG2, Q9NY99
T3 sequence (Q9NY99 68-166, limits assumed, looked up): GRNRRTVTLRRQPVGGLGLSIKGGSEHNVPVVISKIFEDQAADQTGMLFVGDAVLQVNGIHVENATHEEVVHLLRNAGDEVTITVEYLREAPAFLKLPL

[8] = target: IL16_3, Q14005
[9] = target: T4, NHERF3_3, Q5T2W1
T4 sequence (Q5T2W1 238-333, limits assumed, looked up): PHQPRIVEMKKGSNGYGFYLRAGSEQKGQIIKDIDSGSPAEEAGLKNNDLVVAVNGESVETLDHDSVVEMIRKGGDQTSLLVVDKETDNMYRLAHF

[10] = target: T5, RHPN1, Q8TCX5
T5 sequence (Q8TCX5 508-602, limits assumed, looked up): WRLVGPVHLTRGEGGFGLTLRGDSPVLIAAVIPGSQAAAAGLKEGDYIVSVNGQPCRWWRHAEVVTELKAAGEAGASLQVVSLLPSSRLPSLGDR

[11] = target: T6, RAPGEF6, Q8TEU7
T6 sequence (Q8TEU7 525-625, limits assumed, looked up): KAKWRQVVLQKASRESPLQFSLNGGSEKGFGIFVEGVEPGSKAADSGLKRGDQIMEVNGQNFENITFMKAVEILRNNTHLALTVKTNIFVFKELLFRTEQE

[12] = target: T7, APBA1_1, Q02410
T7 sequence (Q02410 651-752, limits assumed, looked up): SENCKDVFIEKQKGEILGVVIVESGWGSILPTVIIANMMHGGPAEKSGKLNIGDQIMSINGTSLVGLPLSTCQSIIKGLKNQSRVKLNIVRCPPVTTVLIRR

[13] = target: T8, RADIL, Q96JH8
T8 sequence (Q96JH8 971-1071, limits assumed, looked up): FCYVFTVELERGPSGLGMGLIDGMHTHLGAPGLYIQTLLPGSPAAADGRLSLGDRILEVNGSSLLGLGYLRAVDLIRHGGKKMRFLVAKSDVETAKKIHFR

[14] = target: FRMPD3, Q5JV73
[15] = target: T9, PDZRN3_1, Q9UPQ7
T9 sequence (Q9UPQ7 244-349, limits assumed, looked up): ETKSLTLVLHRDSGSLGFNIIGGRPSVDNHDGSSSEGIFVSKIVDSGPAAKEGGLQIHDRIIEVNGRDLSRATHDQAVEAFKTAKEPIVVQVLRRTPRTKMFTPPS

[16] = target: GRID2IP_2, A4D2P6
[17] = target: Inadl_5, Q8NI35
[18] = target: T10, SNTA1, Q13424
T10 sequence (Q13424 82-180, limits assumed, looked up): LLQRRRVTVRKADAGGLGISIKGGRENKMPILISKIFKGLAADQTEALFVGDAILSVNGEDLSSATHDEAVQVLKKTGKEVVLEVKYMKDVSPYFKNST

[19] = target: MAGI3_2, Q5TCQ9
[20] = target: MAGI2_2, Q86UL8
[21] = target: DLG5_1, Q8TDM6
[22] = target: ARHGEF12, Q9NZN5-2
[23] = target: PTPN3, P26045
[24] = target: Inadl_3, Q8NI35
[25] = target: TJP1_3, Q07157
[26] = target: T11, ARHGEF11, O15085
T11 sequence (O15085 42-136, limits assumed, looked up): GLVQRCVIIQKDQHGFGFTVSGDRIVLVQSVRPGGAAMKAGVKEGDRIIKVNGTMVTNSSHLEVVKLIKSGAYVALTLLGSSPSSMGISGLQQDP

[27] = target: MAST1, Q9Y2H9
[28] = plain residues with an end cap or a label only (N-terminal biotin on a linker: ttds)
[29] = plain residues with an end cap or a label only (N-terminal biotin on a linker: gsgsgs; C-terminal amide)
[30] = plain residues with an end cap or a label only (N-terminal biotin on a linker: ahx)
[31] = plain residues with an end cap or a label only (N-terminal biotin on a linker: ado-ado)

Sequence of TJP1_3, Q07157 (Q07157 416-512): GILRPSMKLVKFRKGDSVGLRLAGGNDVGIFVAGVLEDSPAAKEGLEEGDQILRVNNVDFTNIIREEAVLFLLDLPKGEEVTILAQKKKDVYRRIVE
Sequence of PDLIM1, O00151 (O00151 1-87): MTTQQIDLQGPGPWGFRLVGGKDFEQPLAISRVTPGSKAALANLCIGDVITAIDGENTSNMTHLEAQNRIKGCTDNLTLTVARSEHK
Sequence of ARHGEF12, Q9NZN5-2 (Q9NZN5 other isoform, or with tags, fused parts or gaps): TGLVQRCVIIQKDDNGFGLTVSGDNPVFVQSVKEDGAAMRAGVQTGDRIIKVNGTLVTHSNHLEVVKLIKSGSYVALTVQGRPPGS
Sequence of PTPN3, P26045 (P26045 505-587): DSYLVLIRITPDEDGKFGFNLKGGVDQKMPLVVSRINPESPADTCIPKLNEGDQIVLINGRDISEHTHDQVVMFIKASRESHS
Sequence of DLG5_1, Q8TDM6 (Q8TDM6 617-713): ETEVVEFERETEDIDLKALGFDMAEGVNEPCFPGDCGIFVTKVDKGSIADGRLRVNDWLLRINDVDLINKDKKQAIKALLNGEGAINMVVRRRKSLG
Sequence of Inadl_5, Q8NI35 (Q8NI35 673-780): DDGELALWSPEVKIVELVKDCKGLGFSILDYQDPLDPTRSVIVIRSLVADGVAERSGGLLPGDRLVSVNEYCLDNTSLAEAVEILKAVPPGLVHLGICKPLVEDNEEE
Sequence of FRMPD3, Q5JV73 (Q5JV73 12-100): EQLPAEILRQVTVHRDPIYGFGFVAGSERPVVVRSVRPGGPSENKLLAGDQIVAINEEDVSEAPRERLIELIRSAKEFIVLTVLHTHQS
Sequence of MAGI3_2, Q5TCQ9 (Q5TCQ9 398-503): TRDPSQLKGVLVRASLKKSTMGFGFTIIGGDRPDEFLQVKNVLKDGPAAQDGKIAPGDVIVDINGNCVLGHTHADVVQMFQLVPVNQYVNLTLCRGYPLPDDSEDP
Sequence of MAST1, Q9Y2H9 (Q9Y2H9 962-1065): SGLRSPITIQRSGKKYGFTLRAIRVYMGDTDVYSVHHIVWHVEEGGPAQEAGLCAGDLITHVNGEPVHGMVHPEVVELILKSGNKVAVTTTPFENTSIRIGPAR
Sequence of Inadl_3, Q8NI35 (Q8NI35 359-469): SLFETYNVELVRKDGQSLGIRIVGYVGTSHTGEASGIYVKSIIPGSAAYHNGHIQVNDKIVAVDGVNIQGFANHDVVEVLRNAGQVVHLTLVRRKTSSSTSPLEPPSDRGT
Sequence of IL16_3, Q14005 (Q14005 1107-1207): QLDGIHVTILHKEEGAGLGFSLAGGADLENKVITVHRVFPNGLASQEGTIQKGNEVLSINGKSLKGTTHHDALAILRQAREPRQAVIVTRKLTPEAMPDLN
Sequence of LNX1_2, Q8TBB1 (Q8TBB1 371-470): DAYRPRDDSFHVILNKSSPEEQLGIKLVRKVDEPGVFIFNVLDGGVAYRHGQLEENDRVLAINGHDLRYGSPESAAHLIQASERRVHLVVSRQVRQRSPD
Sequence of IL16_1, Q14005 (Q14005 210-306): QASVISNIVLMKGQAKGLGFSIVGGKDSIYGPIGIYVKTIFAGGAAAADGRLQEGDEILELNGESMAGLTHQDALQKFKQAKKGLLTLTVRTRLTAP
Sequence of GRID2IP_2, A4D2P6 (A4D2P6 272-370): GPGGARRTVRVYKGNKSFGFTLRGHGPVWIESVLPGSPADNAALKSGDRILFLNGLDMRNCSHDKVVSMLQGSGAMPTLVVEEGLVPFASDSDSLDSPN
Sequence of MAGI2_2, Q86UL8 (Q86UL8 410-522): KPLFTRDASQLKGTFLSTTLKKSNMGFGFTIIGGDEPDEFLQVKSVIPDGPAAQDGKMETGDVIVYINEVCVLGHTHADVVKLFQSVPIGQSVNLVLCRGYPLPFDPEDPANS
Sequence of HTRA1, Q92743 (Q92743 360-477): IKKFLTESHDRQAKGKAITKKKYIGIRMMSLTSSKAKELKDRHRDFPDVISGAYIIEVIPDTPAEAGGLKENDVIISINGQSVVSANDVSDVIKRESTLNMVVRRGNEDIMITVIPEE

B1: SLC16A1, P53985 (peptide)
chain: GGPKEEESPV
pKd [1, 28]: below the threshold | pKd [2, 28]: below the threshold | pKd [3, 28]: below the threshold | pKd [4, 28]: below the threshold | pKd [5, 28]: below the threshold | pKd [6, 28]: 4.26 | pKd [7, 28]: below the threshold | pKd [8, 28]: below the threshold | pKd [9, 28]: below the threshold | pKd [10, 28]: below the threshold | pKd [11, 28]: below the threshold | pKd [12, 28]: below the threshold | pKd [13, 28]: below the threshold | pKd [14, 28]: below the threshold | pKd [15, 28]: below the threshold | pKd [16, 28]: below the threshold | pKd [17, 28]: below the threshold | pKd [18, 28]: below the threshold | pKd [19, 28]: below the threshold | pKd [20, 28]: below the threshold | pKd [21, 28]: below the threshold | pKd [22, 28]: below the threshold | pKd [23, 28]: 4.25 | pKd [24, 28]: below the threshold | pKd [25, 28]: below the threshold | pKd [26, 28]: below the threshold | pKd [27, 28]: below the threshold

B2: ARAP3_int, Q8WWN8 (peptide)
chain: ELIQDTSTSFSTTREW
pKd [1, 29]: below the threshold | pKd [2, 29]: below the threshold | pKd [3, 29]: below the threshold | pKd [4, 29]: below the threshold | pKd [5, 29]: below the threshold | pKd [6, 29]: below the threshold | pKd [7, 29]: below the threshold | pKd [8, 29]: below the threshold | pKd [9, 29]: below the threshold | pKd [10, 29]: below the threshold | pKd [11, 29]: below the threshold | pKd [12, 29]: below the threshold | pKd [13, 29]: below the threshold | pKd [14, 29]: below the threshold | pKd [15, 29]: below the threshold | pKd [16, 29]: 3.89 | pKd [17, 29]: below the threshold | pKd [18, 29]: below the threshold | pKd [19, 29]: below the threshold | pKd [20, 29]: below the threshold | pKd [21, 29]: below the threshold | pKd [22, 29]: below the threshold | pKd [23, 29]: 3.84 | pKd [24, 29]: below the threshold | pKd [25, 29]: below the threshold | pKd [26, 29]: below the threshold | pKd [27, 29]: 3.49

B3: HPV51-E6, P26554 (peptide)
chain: RTRQRNETQV
pKd [1, 28]: 3.46 | pKd [2, 28]: below the threshold | pKd [3, 28]: below the threshold | pKd [4, 28]: below the threshold | pKd [5, 28]: below the threshold | pKd [6, 28]: below the threshold | pKd [7, 28]: 4.22 | pKd [8, 28]: below the threshold | pKd [9, 28]: below the threshold | pKd [10, 28]: 3.7 | pKd [11, 28]: below the threshold | pKd [12, 28]: below the threshold | pKd [13, 28]: 3.82 | pKd [14, 28]: below the threshold | pKd [15, 28]: 4.06 | pKd [16, 28]: below the threshold | pKd [17, 28]: 3.4 | pKd [18, 28]: 4.23 | pKd [19, 28]: 5.83 | pKd [20, 28]: 6.66 | pKd [21, 28]: below the threshold | pKd [22, 28]: 3.73 | pKd [23, 28]: 4.38 | pKd [24, 28]: below the threshold | pKd [25, 28]: below the threshold | pKd [26, 28]: 3.69 | pKd [27, 28]: 4.23

B4: TMEM215, Q68D42 (peptide)
chain: QGRWDHETIV
pKd [1, 30]: below the threshold | pKd [2, 30]: below the threshold | pKd [3, 30]: 4.23 | pKd [4, 30]: 5 | pKd [5, 30]: 3.63 | pKd [6, 30]: 4.4 | pKd [7, 30]: 4.58 | pKd [8, 30]: below the threshold | pKd [9, 30]: below the threshold | pKd [10, 30]: 4.59 | pKd [11, 30]: below the threshold | pKd [12, 30]: below the threshold | pKd [13, 30]: 4.83 | pKd [14, 30]: below the threshold | pKd [15, 30]: 3.73 | pKd [16, 30]: below the threshold | pKd [17, 30]: 3.63 | pKd [18, 30]: 5.28 | pKd [19, 30]: 4.66 | pKd [20, 30]: 4.08 | pKd [21, 30]: below the threshold | pKd [22, 30]: 3.71 | pKd [23, 30]: 4.19 | pKd [24, 30]: 4.42 | pKd [25, 30]: below the threshold | pKd [26, 30]: 4.04 | pKd [27, 30]: 4.3

B5: CES2, O00748 (peptide)
chain: EEPEERHTEL
pKd [1, 31]: below the threshold | pKd [2, 31]: 3.59 | pKd [3, 31]: below the threshold | pKd [4, 31]: 4.36 | pKd [5, 31]: 3.79 | pKd [6, 31]: below the threshold | pKd [7, 31]: below the threshold | pKd [8, 31]: below the threshold | pKd [9, 31]: below the threshold | pKd [10, 31]: 4.19 | pKd [11, 31]: 3.56 | pKd [12, 31]: below the threshold | pKd [13, 31]: below the threshold | pKd [14, 31]: below the threshold | pKd [15, 31]: 4.15 | pKd [16, 31]: 4.46 | pKd [17, 31]: below the threshold | pKd [18, 31]: 4.68 | pKd [19, 31]: below the threshold | pKd [20, 31]: below the threshold | pKd [21, 31]: below the threshold | pKd [22, 31]: 5.03 | pKd [23, 31]: 4.94 | pKd [24, 31]: below the threshold | pKd [25, 31]: below the threshold | pKd [26, 31]: 4.64 | pKd [27, 31]: 3.53
